The record followed here is patent US8889392B2, “Monolignol 4-O-methyltransferases and uses thereof” (Brookhaven Science Associates, LLC, priority 2010, dated 2014).

Several values for one entry are separate records, joined by “and”; a condition that tells them apart may be missing. Identical values can stand only once.

Holding throughout (type): biochemical
One data set deals with T1, horseradish peroxidase (Armoracia rusticana, UniProt P00433).
T1 sequence (P00433 31-338 limits assumed): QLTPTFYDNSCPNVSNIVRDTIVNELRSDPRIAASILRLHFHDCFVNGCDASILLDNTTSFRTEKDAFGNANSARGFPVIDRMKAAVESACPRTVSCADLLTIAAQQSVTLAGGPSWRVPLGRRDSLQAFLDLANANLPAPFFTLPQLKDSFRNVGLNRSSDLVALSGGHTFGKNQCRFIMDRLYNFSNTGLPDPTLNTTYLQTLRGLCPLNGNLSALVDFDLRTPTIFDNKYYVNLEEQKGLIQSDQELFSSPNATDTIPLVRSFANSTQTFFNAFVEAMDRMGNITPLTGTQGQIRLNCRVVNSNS
The data set can be described thus: Peroxidase-catalyzed dehydrogenative polymerization in vitro. The note with it: incubation with horseradish peroxidase and H2O2. An excerpt:
In vitro dehydrogenative polymerization is commonly used as a biomimetic model to explore in vivo lignin formation. Using the novel mutant variants, we produced methylated monolignol—the 4-O-methoxy-coniferyl alcohol, and subjected it to peroxidase-catalyzed dehydrogenative polymerization, compared to the classic p-coniferyl alcohol. […] The oligomer products include a predominant dimer, the β-5 inter subunit linkage, G(8-5)G, and a few minor peaks of the G(8-O-4)G and G(8-8)G dimers.

The nature of data set [1]: Kinetic parameters for 4-O-methylation of coniferyl alcohol. The following applies: for Km / Vmax: substrate coniferyl alcohol, 4-O-methylation. As for the experimental part: E. coli transformants were inoculated in 96 well plates. Protein production was induced with 0.2 mM isopropyl β-D-1-thiogalactopyranoside, and the harvested cell cultures were lysed with 60 μl of BugBuster solution per well (Novagen). Enzymatic activity was screened using the lysates directly or after purification of the recombinant protein in a 96 well purification plate.
Screening was performed in a polypropylene microplate (Bio-Rad) containing 50 μl of the reaction in each well, 500 μM p-coniferyl-alcohol substrates, and 500 μM S-adenosyl-L-methionine augmented with (isotopic assay) or without (LC-MS assay) 0.005 μCi of [methyl-^14C]S-adenosyl-L-methionine, and 20 μl of lysates or purified protein (Ni^+ column eluate). (see Bhuiya, M. W. and Liu, C. J. (2010) J. Biol. Chem. 285:277-285 and its supplemental material).
To further optimize the catalytic efficiency of MOMT on the desired para-methylation of monolignols, based on the crystal structure of MOMT3, we identified additional amino acid residues that either directly contact or are proximate to the bound coniferyl alcohol, particularly the residues near the 3-methoxy-buried pocket. They are F130, A134, V138, L139, F157, Y161, N164, F166, Y168, H169, H173, F179, M183, N186, T319, L322, M323, A325, Y326, and N327. We then carried out the next round saturation mutagenesis on the recognized amino acid sites using MOMT3 as the parental template. […] The MOMT4 enzyme predominantly reacted with coniferyl and sinapyl alcohols, with preference for the latter, while the MOMT5 favors for coniferyl alcohol.

Data set [2] in a line: Kinetic parameters for 4-O-methylation of sinapyl alcohol. The following applies: for Km / Vmax: substrate sinapyl alcohol, 4-O-methylation.
Data set [3] can be described thus: Substrate specificity of mutant variants. The following applies: p-hydroxycinnamyl alcohols and p-hydroxycinnamaldehydes. The text has this: Kinetically, the mutant T133L/E165I/F175I equally preferred two major types of monolignols in angiosperms, i.e., coniferyl and sinapyl alcohols, whereas the T133L/L139Q/E165F variant favored coniferyl slightly over the sinapyl alcohol.

As for `COc1cc(/C=C/CO)ccc1O` [coniferyl alcohol, p-coniferyl alcohol], the conversion and oligomerization entry on horseradish peroxidase was “oxidized and conjugated, yielding several oligolignols”.

B1: T133I-E165I-F175I: IEMT triple mutant, monolignol 4-O methyltransferase-3 (protein, listed as Clarkia breweri)
chain: MGSTGNAEIQIIPTHSSDEEANLFAMQLASAAVLPMALKAAIELDVLEIMAKSVPPSGYISPAEIAAQLPTTNPEAPVMLDRVLRLLASYSVVTYTLRELPSGKVERLYGLAPVCKFLTKNEDGVSLAPFLLIATDKVLLEPWFYLKDAILEGGIPFNKAYGMNIFDYHGTDHRINKVFNKGMSSNSTITMKKILEMYNGFEGLTTIVDVGGGTGAVASMIVAKYPSINAINFDLPHVIQDAPAFSGVEHLGGDMFDGVPKGDAIFIKWICHDWSDEHCLKLLKNCYAALPDHGKVIVAEYILPPSPDPSIATKVVIHTDALMLAYNPGGKERTEKEFQALAMASGFRGFKVASCAFNTYVMEFLKTA
Regarding B1, in data set [1] (coniferyl alcohol), the catalytic efficiency came out at 1245 M⁻¹ s⁻¹ and the “fold increase of catalytic efficiency compared with the wild-type enzyme” value is listed as “more than 70 fold”. For the same molecule, in data set [1], the Km is 279 µM and 199 µM; the Vmax is 556 ± 35 nmol/mg/min and 371 ± 15 nmol/mg/min. Further, in data set [2] (sinapyl alcohol), the catalytic efficiency is 1463 M⁻¹ s⁻¹ and the “fold increase of catalytic efficiency compared with the wild-type enzyme” value is “more than 70 fold”. Moreover, in data set [2], the Km was 120 µM and 119 µM; the Vmax is 275 ± 10 nmol/mg/min and 260 ± 6 nmol/mg/min. Further, the “activity for lignin monomeric precursors” value in data set [3] is given as “high activities”.

B2: T133I-E165I-F175I-F166W-H169W: IEMT penta mutant derived from MOMT3 (protein)
chain: MGSTGNAEIQIIPTHSSDEEANLFAMQLASAAVLPMALKAAIELDVLEIMAKSVPPSGYISPAEIAAQLPTTNPEAPVMLDRVLRLLASYSVVTYTLRELPSGKVERLYGLAPVCKFLTKNEDGVSLAPFLLIATDKVLLEPWFYLKDAILEGGIPFNKAYGMNIWDYWGTDHRINKVFNKGMSSNSTITMKKILEMYNGFEGLTTIVDVGGGTGAVASMIVAKYPSINAINFDLPHVIQDAPAFSGVEHLGGDMFDGVPKGDAIFIKWICHDWSDEHCLKLLKNCYAALPDHGKVIVAEYILPPSPDPSIATKVVIHTDALMLAYNPGGKERTEKEFQALAMASGFRGFKVASCAFNTYVMEFLKTA
Take B2: the Km in data set [1] stood at 127 ± 8 µM; in data set [2] it was 67 ± 10 µM. Moreover, the Vmax in data set [1] amounted to 392 ± 9 nmol/mg/min; in data set [2] it was 160 ± 12 nmol/mg/min.

B3: IEMT wt: C. breweri (iso)eugenol 4-O-methyltransferase, wild type (GenBank U86760.1, SEQ ID NO: 1) (protein, listed as Clarkia breweri)
chain: MGSTGNAEIQIIPTHSSDEEANLFAMQLASAAVLPMALKAAIELDVLEIMAKSVPPSGYISPAEIAAQLPTTNPEAPVMLDRVLRLLASYSVVTYTLRELPSGKVERLYGLAPVCKFLTKNEDGVSLAPFLLTATDKVLLEPWFYLKDAILEGGIPFNKAYGMNEFDYHGTDHRFNKVFNKGMSSNSTITMKKILEMYNGFEGLTTIVDVGGGTGAVASMIVAKYPSINAINFDLPHVIQDAPAFSGVEHLGGDMFDGVPKGDAIFIKWICHDWSDEHCLKLLKNCYAALPDHGKVIVAEYILPPSPDPSIATKVVIHTDALMLAYNPGGKERTEKEFQALAMASGFRGFKVASCAFNTYVMEFLKTA
On to B3, for which, in data set [1], the Km was determined as 1590 ± 182 µM and the Vmax worked out at 42 ± 4 nmol/mg/min. For the same molecule, in data set [2], the Km was 1500 ± 214 µM and the Vmax was determined as 45 ± 4 nmol/mg/min. The “activity for lignin monomeric precursors” value in data set [3] is listed as “barely measurable”.

B4: T133I-E165I-F175I-F166W-T135N: IEMT penta mutant derived from MOMT3 (protein)
chain: MGSTGNAEIQIIPTHSSDEEANLFAMQLASAAVLPMALKAAIELDVLEIMAKSVPPSGYISPAEIAAQLPTTNPEAPVMLDRVLRLLASYSVVTYTLRELPSGKVERLYGLAPVCKFLTKNEDGVSLAPFLLIANDKVLLEPWFYLKDAILEGGIPFNKAYGMNIWDYHGTDHRINKVFNKGMSSNSTITMKKILEMYNGFEGLTTIVDVGGGTGAVASMIVAKYPSINAINFDLPHVIQDAPAFSGVEHLGGDMFDGVPKGDAIFIKWICHDWSDEHCLKLLKNCYAALPDHGKVIVAEYILPPSPDPSIATKVVIHTDALMLAYNPGGKERTEKEFQALAMASGFRGFKVASCAFNTYVMEFLKTA
Take B4: the Km in data set [1] came out at 167 ± 11 µM; in data set [2] it was 54 ± 14 µM. The maximal velocity (Vmax) in data set [1] came out at 431 ± 12 nmol/mg/min; in data set [2], 115 ± 9 nmol/mg/min.

B5: T133L/L139Q/E165F: IEMT triple mutant variant (protein, listed as Clarkia breweri)
chain: MGSTGNAEIQIIPTHSSDEEANLFAMQLASAAVLPMALKAAIELDVLEIMAKSVPPSGYISPAEIAAQLPTTNPEAPVMLDRVLRLLASYSVVTYTLRELPSGKVERLYGLAPVCKFLTKNEDGVSLAPFLLLATDKVQLEPWFYLKDAILEGGIPFNKAYGMNFFDYHGTDHRFNKVFNKGMSSNSTITMKKILEMYNGFEGLTTIVDVGGGTGAVASMIVAKYPSINAINFDLPHVIQDAPAFSGVEHLGGDMFDGVPKGDAIFIKWICHDWSDEHCLKLLKNCYAALPDHGKVIVAEYILPPSPDPSIATKVVIHTDALMLAYNPGGKERTEKEFQALAMASGFRGFKVASCAFNTYVMEFLKTA
Regarding B5, the “activity for lignin monomeric precursors” value in data set [3] was “high activities”.

As usually defined, the Km is the concentration of substrate that gives half-maximal velocity. For orientation: Vmax means the top rate of the reaction or transport when substrate is in excess.
